# Results: the supplement of paper PMC10567573
# B1: KLHL12 (parent)
# chain: REESLPNLLQYVRMPLLTPRYITD
# Variants of: B1
# Assay: protein stability index of a GFP-peptide fusion (GPS, HEK-293T) (PSI 1-6); higher = more stable
# Conditions: c terminus: a fixed tail appended
# 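Also: lentivirally expressed fusions sorted by FACS into six bins by GFP to DsRed ratio, PSI derived from sequencing read proportions per bin multiplied by bin number.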
row,Variant,protein stability index
1,REESLPNLLQYYRMPLLTPRYITD,2.6
2,REESLPNLLQYSRMPLLTPRYITD,3.16
3,REESLPNLLQYTRMPLLTPRYITD,3.01
4,REESLPNLLQYQRMPLLTPRYITD,3.07
5,REESLPNLLQYMRMPLLTPRYITD,2.33
6,REESLPNLLQYLRMPLLTPRYITD,1.86
7,REESLPNLLQYIRMPLLTPRYITD,2.77
8,REESLPNLLQYWRMPLLTPRYITD,1.81
9,REESLPNLLQYDRMPLLTPRYITD,3.7
10,REESLPNLLQYCRMPLLTPRYITD,1.98
11,REESLPNLLQYRRMPLLTPRYITD,3
12,REESLPNLLQYNRMPLLTPRYITD,3.1
13,REESLPNLLQYARMPLLTPRYITD,3.16
14,REESLPNLLQYPRMPLLTPRYITD,3.45
15,REESLPNLLQYKRMPLLTPRYITD,2.81
16,REESLPNLLQYERMPLLTPRYITD,3.85
17,REESLPNLLQYFRMPLLTPRYITD,1.86
18,REESLPNLLQYGRMPLLTPRYITD,2.91
19,REESLPNLLQYHRMPLLTPRYITD,2.74
20,REESLPNLLQYVRRPLLTPRYITD,2.68
21,REESLPNLLQYVRVPLLTPRYITD,2.87
22,REESLPNLLQYVRKPLLTPRYITD,3.46
23,REESLPNLLQYVRTPLLTPRYITD,2.97
24,REESLPNLLQYVRCPLLTPRYITD,2.02

row,Variant,protein stability index
1,REESLPNLLQYVRFPLLTPRYITD,2.09
2,REESLPNLLQYVRYPLLTPRYITD,2.58
3,REESLPNLLQYVRGPLLTPRYITD,3.11
4,REESLPNLLQYVRDPLLTPRYITD,3.17
5,REESLPNLLQYVRIPLLTPRYITD,2.56
6,REESLPNLLQYVRPPLLTPRYITD,3.36
7,REESLPNLLQYVREPLLTPRYITD,3.52
8,REESLPNLLQYVRWPLLTPRYITD,2.13
9,REESLPNLLQYVRAPLLTPRYITD,2.42
10,REESLPNLLQYVRQPLLTPRYITD,2.88
11,REESLPNLLQYVRSPLLTPRYITD,3.13
12,REESLPNLLQYVRNPLLTPRYITD,2.4
13,REESLPNLLQYVRHPLLTPRYITD,2.89
14,REESLPNLLQYVRLPLLTPRYITD,2.35
15,REESLPNLLQYVNMPLLTPRYITD,2.58
16,REESLPNLLQYVLMPLLTPRYITD,3.6
17,REESLPNLLQYVSMPLLTPRYITD,1.52
18,REESLPNLLQYVKMPLLTPRYITD,2.67
19,REESLPNLLQYVGMPLLTPRYITD,1.76
20,REESLPNLLQYVCMPLLTPRYITD,3.21
21,REESLPNLLQYVTMPLLTPRYITD,1.64
22,REESLPNLLQYVEMPLLTPRYITD,2.84
23,REESLPNLLQYVWMPLLTPRYITD,2.84
24,REESLPNLLQYVHMPLLTPRYITD,2.38

row,Variant,protein stability index
1,REESLPNLLQYVYMPLLTPRYITD,2.53
2,REESLPNLLQYVQMPLLTPRYITD,2.31
3,REESLPNLLQYVPMPLLTPRYITD,2.97
4,REESLPNLLQYVDMPLLTPRYITD,2.48
5,REESLPNLLQYVAMPLLTPRYITD,1.49
6,REESLPNLLQYVMMPLLTPRYITD,2.07
7,REESLPNLLQYVVMPLLTPRYITD,2.66
8,REESLPNLLQYVFMPLLTPRYITD,2.06
9,REESLPNLLCYVRMPLLTPRYITD,2.39
10,REESLPNLLKYVRMPLLTPRYITD,2.38
11,REESLPNLLDYVRMPLLTPRYITD,2.06
12,REESLPNLLPYVRMPLLTPRYITD,2.79
13,REESLPNLLEYVRMPLLTPRYITD,2.41
14,REESLPNLLIYVRMPLLTPRYITD,4.07
15,REESLPNLLLYVRMPLLTPRYITD,2.27
16,REESLPNLLSYVRMPLLTPRYITD,2.33
17,REESLPNLLAYVRMPLLTPRYITD,2.47
18,REESLPNLLTYVRMPLLTPRYITD,2.28
19,REESLPNLLHYVRMPLLTPRYITD,2.25
20,REESLPNLLNYVRMPLLTPRYITD,2.05
21,REESLPNLLMYVRMPLLTPRYITD,1.56
22,REESLPNLLWYVRMPLLTPRYITD,1.17
23,REESLPNLLRYVRMPLLTPRYITD,3.13
24,REESLPNLLGYVRMPLLTPRYITD,2.45

row,Variant,protein stability index
1,REESLPNLLFYVRMPLLTPRYITD,2.22
2,REESLPNLLYYVRMPLLTPRYITD,2.16
3,REESLPNLLQLVRMPLLTPRYITD,2.09
4,REESLPNLLQMVRMPLLTPRYITD,2.34
5,REESLPNLLQGVRMPLLTPRYITD,3.52
6,REESLPNLLQNVRMPLLTPRYITD,3.47
7,REESLPNLLQCVRMPLLTPRYITD,2.82
8,REESLPNLLQWVRMPLLTPRYITD,1.96
9,REESLPNLLQDVRMPLLTPRYITD,3.96
10,REESLPNLLQSVRMPLLTPRYITD,3.33
11,REESLPNLLQPVRMPLLTPRYITD,3.56
12,REESLPNLLQKVRMPLLTPRYITD,2.87
13,REESLPNLLQAVRMPLLTPRYITD,2.76
14,REESLPNLLQIVRMPLLTPRYITD,2.68
15,REESLPNLLQHVRMPLLTPRYITD,2.88
16,REESLPNLLQTVRMPLLTPRYITD,3.06
17,REESLPNLLQEVRMPLLTPRYITD,3.9
18,REESLPNLLQFVRMPLLTPRYITD,2.92
19,REESLPNLLQVVRMPLLTPRYITD,2.51
20,REESLPNLLQQVRMPLLTPRYITD,3.42
21,REESLPNLLQRVRMPLLTPRYITD,3.21
22,REESLPNLAQYVRMPLLTPRYITD,2.97
